According to publication PMC10041117:

Experiments:
[1] = molecular target: myosin S2Δ (fragment of the S2 region of myosin consisting of its first 128 residues); assay: MST; C0C2 constructs binding to myosin S2Δ; as in refs 15 and 25
[2] = molecular target: isolated bovine native thin filaments (NTFs) (bovine), Q3ZC07; assay: co-sedimentation; C0C2 constructs cosedimented with isolated bovine native thin filaments (NTFs); as in ref. 15

Chain of myosin S2Δ (fragment of the S2 region of myosin consisting of its first 128 residues) (P12883 838-965, stated change not applied): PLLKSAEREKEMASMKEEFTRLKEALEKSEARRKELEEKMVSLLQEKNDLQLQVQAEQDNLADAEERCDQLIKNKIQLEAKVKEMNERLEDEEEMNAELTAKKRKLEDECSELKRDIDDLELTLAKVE

| Kd [1] [µM] | Kd [2] [µM] | Binder |
| --- | --- | --- |
| 35 | 18 | mTFP-C0C2 (C0C2 of cMyBP-C conjugated to mTFP at its N terminus) (domain or fragment, modifications not checked) MPEPGKRPVSAFTKKPRSVEVTAGSAAVFEAETERSGLKVQWQRDGSDIAANDKYGLAAEGKRHTLTVRDVGPDDQGSYAVIAGSSKVKFDLKVTEPAPPEKAESAVAPTSMEAPETPKEVPALATQLEGNVSSPEGSVSVTQDGSVAGSQGAPDDPIGLFLMRPQDGEVTVGGSIVFSARVAGASLLKPPVVKWFKGKWVDLSSKVGQHLQLHDSYDRASKVYLFELHITDAQATSAGGYRCEVSTKDKFDSCNFNLTVHEAIGSGDLDLRSAFRRTSLAGTGRRTSDSHEDAGTLDFSSLLKKSSFRRDSKLEAPAEEDVWEILRQAPPSEYERIAFQHGVTDLRGMLKRLKGMKHDEKKSTAFQKKLEPAYQVNKGHKIRLTVELADPDAEVKWLKNGQEIQMSGRYIFESIGAKRTLTISQCSLADDAAYQCVVGGEKCSTELFVKEP |
| 20 | 42 | N-terminal fragment of cMyBP-C containing domains C0 through C2 (C0C2), wild type (domain or fragment, modifications not checked) MPEPGKRPVSAFTKKPRSVEVTAGSAAVFEAETERSGLKVQWQRDGSDIAANDKYGLAAEGKRHTLTVRDVGPDDQGSYAVIAGSSKVKFDLKVTEPAPPEKAESAVAPTSMEAPETPKEVPALATQLEGNVSSPEGSVSVTQDGSVAGSQGAPDDPIGLFLMRPQDGEVTVGGSIVFSARVAGASLLKPPVVKWFKGKWVDLSSKVGQHLQLHDSYDRASKVYLFELHITDAQATSAGGYRCEVSTKDKFDSCNFNLTVHEAIGSGDLDLRSAFRRTSLAGTGRRTSDSHEDAGTLDFSSLLKKSSFRRDSKLEAPAEEDVWEILRQAPPSEYERIAFQHGVTDLRGMLKRLKGMKHDEKKSTAFQKKLEPAYQVNKGHKIRLTVELADPDAEVKWLKNGQEIQMSGRYIFESIGAKRTLTISQCSLADDAAYQCVVGGEKCSTELFVKEP |
